Results on 2 molecules are retold here after patent publication EP1758924B1 (Council of Scientific and Industrial Research, dated 2005).

For assay [1], the target named is T1, bovine serum albumin (BSA) (bovine, UniProt P02769 25-607).
T1 construct: Negative control target in the reverse phage ELISA
Briefly: reverse phage ELISA, A405. For orientation: An ELISA detects its analyte on a solid surface through an enzyme-linked reagent.

Assay [2] deals with T2, Hsp16.3 (16 kDa alpha-crystallin like heat-shock protein of Mycobacterium tuberculosis), recombinant, 6 X His … (Mycobacterium tuberculosis).
T2 construct: also called M. tuberculosis Acr (Hsp16.3) protein
Briefly: reverse phage ELISA on coated Hsp16.3, anti-M13-HRP, A405.

T1 sequence (P02769 25-607 limits assumed): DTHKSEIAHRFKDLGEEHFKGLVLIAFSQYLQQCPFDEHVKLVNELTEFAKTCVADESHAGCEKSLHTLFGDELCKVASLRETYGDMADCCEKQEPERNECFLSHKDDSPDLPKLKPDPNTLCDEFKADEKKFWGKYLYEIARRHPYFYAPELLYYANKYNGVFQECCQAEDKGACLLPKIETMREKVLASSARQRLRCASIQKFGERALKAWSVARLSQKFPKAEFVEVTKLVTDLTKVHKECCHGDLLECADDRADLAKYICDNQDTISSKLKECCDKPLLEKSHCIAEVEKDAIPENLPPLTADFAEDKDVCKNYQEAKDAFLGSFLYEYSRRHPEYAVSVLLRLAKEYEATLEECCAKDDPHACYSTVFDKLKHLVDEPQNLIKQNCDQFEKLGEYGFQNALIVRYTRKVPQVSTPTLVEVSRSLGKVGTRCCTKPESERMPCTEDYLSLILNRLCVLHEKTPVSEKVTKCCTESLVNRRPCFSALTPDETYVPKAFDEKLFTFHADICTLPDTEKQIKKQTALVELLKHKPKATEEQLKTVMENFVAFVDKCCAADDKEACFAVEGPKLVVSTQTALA

B1: phage clone displaying peptide sequence Seq ID 21 (Tyr-Pro-His-His-Phe-Lys-His-Arg-His-Ile-Pro-Ile), from the Ph.D.-12 library on bacteriophage M13 (peptide)
peptide: YPHHFKHRHIPI
notes: Tested as whole phage in the reverse phage ELISA; not shown: fused to an M13 coat protein (spacer Gly-Gly-Gly-Ser is named)
For B1, the binding result in assay [1] is reported as “no binding”.

B2: phage clone displaying peptide sequence Seq ID 9 (Lys-Met-His-Ala-Thr-Asn-His), from the Ph.D.-7 library on bacteriophage M13 (peptide)
peptide: KMHATNH
notes: as for B1
On to B2, for which the “fold binding over BSA background” value in assay [2] was around 3 fold. The binding result in assay [1] is given as “no binding”.
